Biological target: the molecule itself
Assay: crystal structure

B1: betaine aldehyde dehydrogenase from Burkholderia pseudomallei (enzyme)
chain: MSVYGLQRLYIAGAHADATSGKTFDTFDPATGELLARVQQASADDVDRAVASAREGQREWAAMTAMQRSRILRRAVELLRERNDALAELEMRDTGKPIAETRAVDIVTGADVIEYYAGLATAIEGLQVPLRPESFVYTRREPLGVCAGIGAWNYPIQIACWKSAPALAAGNAMIFKPSEVTPLSALKLAEIYTEAGVPAGVFNVVQGDGSVGALLSAHPGIAKVSFTGGVETGKKVMSLAGASSLKEVTMELGGKSPLIVFDDADLDRAADIAVTANFFSAGQVCTNGTRVFVQQAVKDAFVERVLARVARIRVGKPSDSDTNFGPLASAAQLDKVLGYIDSGKAEGAKLLAGGARLVNDHFASGQYVAPTVFGDCRDDMRIVREEIFGPVMSILSFETEDEAIARANATDYGLAAGVVTENLSRAHRAIHRLEAGICWINTWGESPAEMPVGGYKQSGVGRENGITTLEHYTRIKSVQVELGRYQPVF
notes: also called BpBADH; BpBADH-His; not shown: His6, C-terminal, kept
- binding result: binds
